Measurements taken from patent publication US20230312686A1 (Bristol-Myers Squibb, published 2023).
Several values for one entry are separate records, joined by “and”; a condition that tells them apart may be missing. Identical values can stand only once. One block for each binder: values may come before it.

Columns and labels:
[1] = molecular target: T1, Human glypican-3, recombinant, construct not stated (human, UniProt P51654 25-559, limits assumed, biotin in the positional scanning (site not stated)); assay: ELISA, recombinant GPC3
T1 construct: also called recombinant GPC3; human GPC3

[2] = molecular target: T2, Recombinant murine glypican-3 (aa 25-557), R&D Systems (murine, UniProt Q8CFZ4 25-557); assay: SPR 1-point off-rate, alkylated mutant vs parent
T2 construct: also called muGPC3; Mu GPC3-His

[3] = molecular target: T3, Recombinant human glypican-3 (aa 1-559), His-tagged, R&D Systems (human, UniProt P51654 25-559); assay: SPR 1-point off-rate, alkylated mutant vs parent
T3 construct: also called huGPC3; Hu GPC3-His

[4] = molecular target: T2, Recombinant murine glypican-3 (aa …); assay: SPR, Biacore T100, GPC3-His immobilised, 1:1 fit
Description: (§1) The binding affinities of the alkylated GPC3 DG mutant adnectins for human and murine GPC3 were further evaluated by Biacore T100 using HBS-P+ running buffer with direct immobilization of human and mouse GPC3 proteins [Hu (Fc 2,3) and Mu (Fc 4) GPC3-His (R&D Systems)] with a 200-1.56 nM series injected for 180s association, 600s dissociation.

[5] = molecular target: T3, Recombinant human glypican-3 (aa …); assay: SPR, Biacore T100, GPC3-His immobilised, 1:1 fit
Description: as §1

[6] = molecular target: T2, Recombinant murine glypican-3 (aa …); assay: SPR, as in the previous Examples
Description: (§2) For off-rate measurements, single 200 nM adnectin/AdxDC concentrations were injected using identical conditions. One 30s injection of 10 mM glycine pH 1.7 was used to remove bound adnectin and regenerate the GPC3 surfaces between assay cycles.
(§3) Rate constants kₐ (kₒₙ) and kd (koff) were derived from reference-subtracted sensorgrams fit to a 1:1 binding model in Biacore T100 Evaluation Software v2.0.4 (GE Healthcare). The affinity constant, KD was calculated from the ratio of rate constants kd/kₐ.
(§4) FITC Labeling: ADX_6077_F02 and non-binding control Adnectin were reduced with DTT or TCEP followed by G25 gel filtration chromatography or dialysis. Excess Fluorescein-5-maleimide reagent (Thermo Scientific) was then added and the mixture incubated at room temperature for approximately 2 hours followed by G25 gel filtration chromatography or extensive dialysis (3-4 buffer changes). The resulting degree of labeling was measured by absorbance following the manufacturer's instructions and/or by mass spectrometry. The binding affinities of FITC-labeled and PEGylated […] for human and murine GPC3 was evaluated as described in the previous Examples, and the results are summarized in Table 13.

[7] = molecular target: T3, Recombinant human glypican-3 (aa …); assay: SPR, as in the previous Examples
Description: as §2, §3, §4

T3 sequence (P51654 other isoform, or with tags, fused parts or gaps): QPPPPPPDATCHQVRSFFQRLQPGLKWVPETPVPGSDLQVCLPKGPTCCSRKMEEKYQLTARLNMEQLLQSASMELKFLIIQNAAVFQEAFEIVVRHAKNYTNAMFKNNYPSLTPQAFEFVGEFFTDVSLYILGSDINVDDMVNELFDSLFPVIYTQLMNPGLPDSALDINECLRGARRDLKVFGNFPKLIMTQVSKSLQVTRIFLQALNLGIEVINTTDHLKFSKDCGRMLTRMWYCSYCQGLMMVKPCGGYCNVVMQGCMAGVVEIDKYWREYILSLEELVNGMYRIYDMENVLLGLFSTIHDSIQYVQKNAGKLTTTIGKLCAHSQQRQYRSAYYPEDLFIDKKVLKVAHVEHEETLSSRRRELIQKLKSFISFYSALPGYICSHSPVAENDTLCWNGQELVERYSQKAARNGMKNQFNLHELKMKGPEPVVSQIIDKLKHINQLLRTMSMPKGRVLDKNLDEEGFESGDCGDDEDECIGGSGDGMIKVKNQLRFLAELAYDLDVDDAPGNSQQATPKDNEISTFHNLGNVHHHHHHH
T1 sequence (P51654 25-559 limits assumed): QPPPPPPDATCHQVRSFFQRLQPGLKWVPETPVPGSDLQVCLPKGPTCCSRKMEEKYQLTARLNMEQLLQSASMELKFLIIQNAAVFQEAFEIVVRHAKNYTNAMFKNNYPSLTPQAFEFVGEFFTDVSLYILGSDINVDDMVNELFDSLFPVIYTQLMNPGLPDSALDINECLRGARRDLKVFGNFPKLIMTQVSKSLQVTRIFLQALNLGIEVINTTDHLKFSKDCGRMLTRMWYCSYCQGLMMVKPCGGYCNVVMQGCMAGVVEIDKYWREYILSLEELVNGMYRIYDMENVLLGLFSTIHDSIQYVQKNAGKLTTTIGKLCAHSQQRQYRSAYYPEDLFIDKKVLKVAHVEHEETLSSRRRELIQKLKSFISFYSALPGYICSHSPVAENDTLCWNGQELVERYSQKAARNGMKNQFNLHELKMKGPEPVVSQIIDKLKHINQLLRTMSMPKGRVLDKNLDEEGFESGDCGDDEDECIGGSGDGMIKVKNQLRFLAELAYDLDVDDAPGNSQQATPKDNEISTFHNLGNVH
T2 sequence (Q8CFZ4 25-557 limits assumed, form in doubt): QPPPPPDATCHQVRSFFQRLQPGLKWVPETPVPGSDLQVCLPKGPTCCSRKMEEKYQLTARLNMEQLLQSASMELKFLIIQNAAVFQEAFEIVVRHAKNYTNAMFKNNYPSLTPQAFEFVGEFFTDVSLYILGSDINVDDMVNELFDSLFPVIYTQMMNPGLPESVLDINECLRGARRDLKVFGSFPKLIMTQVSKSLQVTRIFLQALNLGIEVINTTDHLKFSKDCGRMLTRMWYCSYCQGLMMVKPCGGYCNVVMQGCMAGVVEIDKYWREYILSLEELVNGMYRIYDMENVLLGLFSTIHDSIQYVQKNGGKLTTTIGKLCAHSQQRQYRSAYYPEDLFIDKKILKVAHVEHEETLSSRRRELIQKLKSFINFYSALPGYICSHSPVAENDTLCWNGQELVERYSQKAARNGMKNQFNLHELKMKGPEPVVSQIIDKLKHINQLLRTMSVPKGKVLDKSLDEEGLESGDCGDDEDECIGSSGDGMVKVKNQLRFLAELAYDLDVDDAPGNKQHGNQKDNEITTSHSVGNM

muGPC3 koff (mut/par) [2]: 7 fold
huGPC3 koff (mut/par) [3]: 7.9 fold
Fold affinity (KD) difference vs alkylated parent [4]: 7.8 fold
Kd [4]: 30 nM
koff [4]: 0.0025 s⁻¹
kon [4]: 85000 M⁻¹ s⁻¹
Fold affinity (KD) difference vs alkylated parent [5]: 7.8 fold
Kd [5]: 43.5 nM
koff [5]: 0.00309 s⁻¹
kon [5]: 71000 M⁻¹ s⁻¹
B3: ADX_6077_F02 DG→DV mutant, alkylated (designed binder)
chain: GVSDVPRDLEVVAATPTSLLISWSDDYHAHRYYRITYGETGGNSPVQEFTVPGEHVTATISGLKPGVDYTITVYAVTYDVEKAATDWSISINYRTPC
modifications: C-terminal cysteine alkylated
notes: also called P1-055672

muGPC3 koff (mut/par) [2]: 12 fold
huGPC3 koff (mut/par) [3]: 14 fold
B4: ADX_6077_F02 DG→GG mutant, alkylated (designed binder)
chain: GVSDVPRDLEVVAATPTSLLISWSDDYHAHRYYRITYGETGGNSPVQEFTVPGEHVTATISGLKPGVDYTITVYAVTYGGEKAATDWSISINYRTPC
modifications: C-terminal cysteine alkylated
notes: also called P1-055670

ELISA OD [1]: 1.35 OD
B5: ADX_5273_C01 (designed binder)
chain: MGVSDVPRDLEVVAATPTSLLISWSDPYEEERYYRITYGETGGNSPVQEFTVPAFHTTATISGLKPGVDYTITVYAVTYKHKYAYYYPPISINYRTEIDKPSQ

ELISA OD [1]: 1.73 OD
B6: ADX_4606_F06 (designed binder)
chain: MGVSDVPRDLEVVAATPTSLLISWNSGHSGQYYRITYGETGGNSPVQEFTVPRYGYTATISGLKPGVDYTITVYAVAHSEASAPISINYRTEIDKPSQ

ELISA OD [1]: 2.37 OD
B8: ADX_5274_E01 (designed binder)
chain: MGVSDVPRDLEVVAATPTSLLISWSGDYHPHRYYRITYGETGGNSPVQEFTVPGEHETATISGLKPGVDYTITVYAVTYDGEKADKYPPISINYRTEIDKPSQ

ELISA OD [1]: 2.1 OD
B12: ADX_5273_D01 (designed binder)
chain: MGVSDVPRDLEVVAATPTSLLISWEPSYKDDRYYRITYGETGGNSPVQEFTVPSFHQTATISGLKPGVDYTITVYAVTYEPDEYYFYYPISINYRTEIDKPSQ

More lines, now with the values behind:

B1: ADX_4578_H08 (designed binder)
chain: MGVSDVPRDLEVVAATPTSLLISWSGYDYGDSYYRITYGETGGNSPVQEFTVPDGSNTATISGLKPGVDYTITVYAVEAYGKGYTRYTPISINYRTEIDKPSQ
ELISA OD [1]: 1.02 OD

B2: ADX_4578_F03 (designed binder)
chain: MGVSDVPRDLEVVAATPTSLLISWHPPHPNIVSYHIYYGETGGNSPVQEFTVEGSKSTAKISGLKPGVDYTITVYAVAPEIEKYYQIWINYRTEGSGS
ELISA OD [1]: 0.6 OD

B7: ADX_4578_B06 (designed binder)
chain: MGVSDVPRDLEVVAATPTSLLISWFPDRYVYYITYGETGGNSPVQEFTVEGHKQTAYISGLKPGVDYTITVYAIYYYPDDFQGYPQPISINYRTEGSGS
ELISA OD [1]: 0.17 OD

B9: 6077_F02-FITC (designed binder)
chain: MGVSDVPRDLEVVAATPTSLLISWSDDYHAHRYYRITYGETGGNSPVQEFTVPGEHVTATISGLKPGVDYTITVYAVTYDGEKAATDWSISINYRTPCHHHHHH
modifications: fluorescein-5-maleimide on the C-terminal cysteine
notes: also called FITC-labeled ADX_6077_F02
Kd [6]: 3.97 nM
koff [6]: 0.000446 s⁻¹
kon [6]: 112000 M⁻¹ s⁻¹
Kd [7]: 6.11 nM
koff [7]: 0.000498 s⁻¹
kon [7]: 81500 M⁻¹ s⁻¹

B10: 6077_F02.dPEG (designed binder)
chain: MGVSDVPRDLEVVAATPTSLLISWSDDYHAHRYYRITYGETGGNSPVQEFTVPGEHVTATISGLKPGVDYTITVYAVTYDGEKAATDWSISINYRTPCHHHHHH
modifications: dPEG, site and size not stated
notes: The PEGylation is not described; also called PEGylated anti-GPC3 adnectin (dPEG)
Kd [6]: 5.43 nM and 5.26 nM
koff [6]: 0.000559 s⁻¹ and 0.000557 s⁻¹
kon [6]: 103000 M⁻¹ s⁻¹ and 106000 M⁻¹ s⁻¹
Kd [7]: 8.19 nM and 8.1 nM
koff [7]: 0.000602 s⁻¹ and 0.000607 s⁻¹
kon [7]: 73500 M⁻¹ s⁻¹ and 75000 M⁻¹ s⁻¹

B11: 6077_F02-PEG3.4 (designed binder)
chain: MGVSDVPRDLEVVAATPTSLLISWSDDYHAHRYYRITYGETGGNSPVQEFTVPGEHVTATISGLKPGVDYTITVYAVTYDGEKAATDWSISINYRTPCHHHHHH
modifications: PEG3.4, site not stated
notes: The PEGylation is not described; also called PEGylated anti-GPC3 adnectin (PEG3.4)
Kd [6]: 5.12 nM
koff [6]: 0.000523 s⁻¹
kon [6]: 102000 M⁻¹ s⁻¹
Kd [7]: 8.14 nM
koff [7]: 0.000584 s⁻¹
kon [7]: 71800 M⁻¹ s⁻¹
